Experiments:
[1] = tested on: HT29 cells; assay: MTT viability of protease-treated cells; type: cell-based; conditions: MTT 45 minutes at 37° C. after protease treatment
Protocol: (§1) In order to further this observation, HT29 cells were treated with active or boiled proteases to determine the effect of treatment on the ability of an RPM displaying phage to bind. HT29 cells were treated with active or boiled collagenase for 15 minutes, trypsin for 5 minutes, or proteinase K for 0.5 minutes at 37° C. After protease treatment, cells were washed, then an equal number of phage were added and allowed to bind. […] The decrease in phage binding to the HT29 cells was due to the protease activity since boiling the proteases abolished the effect with phage binding returning to levels of that observed for PBS treated cells (FIG. 6B). […] After treating HT29 cells with proteases as described above, MTT was added to the cells and incubated for 45 minutes at 37° C. After incubation, the cells were solubilized with 0.1N HCl in isopropanol and the absorbance due to MTT incorporation was determined.

[2] = tested on: HT29 cells; assay: Protease assay: RPM phage binding to protease-treated cells; conditions: 37° C.
Protocol: HT29 cells were incubated at 37° C. with either active or boiled Collagenase diluted 1:20 for 10 minutes, Trypsin-EDTA 0.25% (Gibco) for 5 minutes or Proteinase K (Gibco) diluted 1:600 for 1 minute. After incubation, cells were then incubated with RPM bearing phage as described above. The number of phage remaining bound was quantified by real time PCR.
as §1

B1: proteinase K: protease used to treat HT29 cells (protein, UniProt P06873 106-384, looked up)
Proteinase K: AAQTNAPWGLARISSTSPGTSTYYYDESAGQGSCVYVIDTGIEASHPEFEGRAQMVKTYYYSSRDGNGHGTHCAGTVGSRTYGVAKKTQLFGVKVLDDNGSGQYSTIIAGMDFVASDKNNRNCPKGVVASLSLGGGYSSSVNSAAARLQSSGVMVAVAAGNNNADARNYSPASEPSVCTVGASDRYDRRSSFSNYGSVLDIFGPGTSILSTWIGGSTRSISGTSMATPHVAGLAAYLMTLGKTTAASACRYIADTANKGDLSNIPFGTVNLLAYNNYQA
average absorbance (MTT incorporation) of treated cells [1]: 0.183
decrease of RPM phage binding to active protease treated HT29 cells [2]: 90%

From patent publication US7452965B2, “Colon tumor specific binding peptides” (University of Utah Research Foundation, priority 2002, dated 2008)
